{
  "source": "patent US20260001928A1",
  "about": "(CORTERIA PHARMACEUTICALS, priority 2022, published 2026)",
  "key": {"[1]": {"target": "T1, CRF1R receptor (UniProt P34998 24-415, limits assumed)", "T1 sequence (looked up)": "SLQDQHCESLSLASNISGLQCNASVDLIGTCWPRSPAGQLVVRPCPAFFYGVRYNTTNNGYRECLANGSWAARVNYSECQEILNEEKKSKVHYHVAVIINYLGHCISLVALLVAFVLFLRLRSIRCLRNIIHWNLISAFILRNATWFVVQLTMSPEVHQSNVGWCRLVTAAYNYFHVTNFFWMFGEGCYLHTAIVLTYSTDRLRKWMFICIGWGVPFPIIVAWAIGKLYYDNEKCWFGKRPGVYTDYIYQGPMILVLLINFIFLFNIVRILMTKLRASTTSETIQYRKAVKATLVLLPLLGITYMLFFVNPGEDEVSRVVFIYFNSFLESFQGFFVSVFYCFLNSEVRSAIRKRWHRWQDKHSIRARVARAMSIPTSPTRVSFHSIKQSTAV", "test": "cell-based or functional assay"}, "[2]": {"target": "human corticotropin-releasing factor 2a (CRF2a receptor) (human), Q13324", "sequence (Q13324 20-411)": "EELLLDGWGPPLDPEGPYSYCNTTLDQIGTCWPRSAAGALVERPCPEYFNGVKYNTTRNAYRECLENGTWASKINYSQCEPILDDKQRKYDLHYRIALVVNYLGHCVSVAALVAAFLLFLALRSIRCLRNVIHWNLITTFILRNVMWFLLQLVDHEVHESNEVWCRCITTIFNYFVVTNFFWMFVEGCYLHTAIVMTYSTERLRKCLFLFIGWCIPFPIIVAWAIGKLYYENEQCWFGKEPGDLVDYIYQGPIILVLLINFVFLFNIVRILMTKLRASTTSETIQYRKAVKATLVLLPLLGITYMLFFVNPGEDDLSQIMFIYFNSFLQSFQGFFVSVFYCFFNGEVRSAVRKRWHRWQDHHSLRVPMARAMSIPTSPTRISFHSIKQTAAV", "test": "cell-based or functional assay"}},
  "note": "*1 amine or outer side, *2 acyl side, *3 side chain or, on linkers, in order; H or OH if unused. Where no end group is shown, it is not given here. Side-chain parts run from the residue outwards. [ ]: non-standard residue; d: D form. The star is where a group is joined. C18 diacid = O=C(O)CCCCCCCCCCCCCCCCC(=O)*; C16 diacid = O=C(O)CCCCCCCCCCCCCCC(=O)*; γGlu = O=C(O)[C@H](CCC(=O)[*:2])N[*:1]; NMeI = CC[C@H](C)[C@H](NC)C(=O)O; Ac6c = NC1(C(=O)O)CCCCC1; Ac5c = NC1(C(=O)O)CCCC1; Ac3c = NC1(C(=O)O)CC1; Aib = CC(C)(N)C(=O)O",
  "data": [
    {"binder": "Ac-IVLSLD[dV]PIKLK([γGlu-C16 diacid])KILLEQEKQKKQREQAETN[Ac3c]QILAQV-NH2 (SMILES CC[C@H](C)[C@H](NC(C)=O)C(=O)N[C@H](C(=O)N[C@@H](CC(C)C)C(=O)N[C@@H](CO)C(=O)N[C@@H](CC(C)C)C(=O)N[C@@H](CC(=O)O)C(=O)N[C@@H](C(=O)N1CCC[C@H]1C(=O)N[C@H](C(=O)N[C@@H](CCCCN)C(=O)N[C@@H](CC(C)C)C(=O)N[C@@H](CCCCNC(=O)CC[C@H](NC(=O)CCCCCCCCCCCCCCC(=O)O)C(=O)O)C(=O)N[C@@H](CCCCN)C(=O)N[C@H](C(=O)N[C@@H](CC(C)C)C(=O)N[C@@H](CC(C)C)C(=O)N[C@@H](CCC(=O)O)C(=O)N[C@@H](CCC(N)=O)C(=O)N[C@@H](CCC(=O)O)C(=O)N[C@@H](CCCCN)C(=O)N[C@@H](CCC(N)=O)C(=O)N[C@@H](CCCCN)C(=O)N[C@@H](CCCCN)C(=O)N[C@@H](CCC(N)=O)C(=O)N[C@@H](CCCNC(=N)N)C(=O)N[C@@H](CCC(=O)O)C(=O)N[C@@H](CCC(N)=O)C(=O)N[C@@H](C)C(=O)N[C@@H](CCC(=O)O)C(=O)N[C@H](C(=O)N[C@@H](CC(N)=O)C(=O)NC1(C(=O)N[C@@H](CCC(N)=O)C(=O)N[C@H](C(=O)N[C@@H](CC(C)C)C(=O)N[C@@H](C)C(=O)N[C@@H](CCC(N)=O)C(=O)N[C@H](C(N)=O)C(C)C)[C@@H](C)CC)CC1)[C@@H](C)O)[C@@H](C)CC)[C@@H](C)CC)C(C)C)C(C)C)", "note": "[SEQ ID NO 61]", "values": [
      {"measurement": "Emax (% I)", "setting": "[1]", "result": 3, "unit": "%"},
      {"measurement": "EC50 [nM] (cAMP)", "setting": "[2]", "result": 0.36, "unit": "nM"}
    ]},
    {"binder": "Ac-IVLSLD[dV]PIKLK([γGlu-C18 diacid])KILLEQEKQKKQREQAETN[Ac6c]QILAQV-NH2 (SMILES CC[C@H](C)[C@H](NC(C)=O)C(=O)N[C@H](C(=O)N[C@@H](CC(C)C)C(=O)N[C@@H](CO)C(=O)N[C@@H](CC(C)C)C(=O)N[C@@H](CC(=O)O)C(=O)N[C@@H](C(=O)N1CCC[C@H]1C(=O)N[C@H](C(=O)N[C@@H](CCCCN)C(=O)N[C@@H](CC(C)C)C(=O)N[C@@H](CCCCNC(=O)CC[C@H](NC(=O)CCCCCCCCCCCCCCCCC(=O)O)C(=O)O)C(=O)N[C@@H](CCCCN)C(=O)N[C@H](C(=O)N[C@@H](CC(C)C)C(=O)N[C@@H](CC(C)C)C(=O)N[C@@H](CCC(=O)O)C(=O)N[C@@H](CCC(N)=O)C(=O)N[C@@H](CCC(=O)O)C(=O)N[C@@H](CCCCN)C(=O)N[C@@H](CCC(N)=O)C(=O)N[C@@H](CCCCN)C(=O)N[C@@H](CCCCN)C(=O)N[C@@H](CCC(N)=O)C(=O)N[C@@H](CCCNC(=N)N)C(=O)N[C@@H](CCC(=O)O)C(=O)N[C@@H](CCC(N)=O)C(=O)N[C@@H](C)C(=O)N[C@@H](CCC(=O)O)C(=O)N[C@H](C(=O)N[C@@H](CC(N)=O)C(=O)NC1(C(=O)N[C@@H](CCC(N)=O)C(=O)N[C@H](C(=O)N[C@@H](CC(C)C)C(=O)N[C@@H](C)C(=O)N[C@@H](CCC(N)=O)C(=O)N[C@H](C(N)=O)C(C)C)[C@@H](C)CC)CCCCC1)[C@@H](C)O)[C@@H](C)CC)[C@@H](C)CC)C(C)C)C(C)C)", "note": "[SEQ ID NO 134]", "values": [
      {"measurement": "Emax (% I)", "setting": "[1]", "result": 10, "unit": "%"},
      {"measurement": "EC50 [nM] (cAMP)", "setting": "[2]", "result": 0.5, "unit": "nM"}
    ]},
    {"binder": "Ac-IVLSLD[dV]PIKLK([γGlu-C18 diacid])KILLEQEKQKKQREQAETN[Ac5c]QILAQV-NH2 (SMILES CC[C@H](C)[C@H](NC(C)=O)C(=O)N[C@H](C(=O)N[C@@H](CC(C)C)C(=O)N[C@@H](CO)C(=O)N[C@@H](CC(C)C)C(=O)N[C@@H](CC(=O)O)C(=O)N[C@@H](C(=O)N1CCC[C@H]1C(=O)N[C@H](C(=O)N[C@@H](CCCCN)C(=O)N[C@@H](CC(C)C)C(=O)N[C@@H](CCCCNC(=O)CC[C@H](NC(=O)CCCCCCCCCCCCCCCCC(=O)O)C(=O)O)C(=O)N[C@@H](CCCCN)C(=O)N[C@H](C(=O)N[C@@H](CC(C)C)C(=O)N[C@@H](CC(C)C)C(=O)N[C@@H](CCC(=O)O)C(=O)N[C@@H](CCC(N)=O)C(=O)N[C@@H](CCC(=O)O)C(=O)N[C@@H](CCCCN)C(=O)N[C@@H](CCC(N)=O)C(=O)N[C@@H](CCCCN)C(=O)N[C@@H](CCCCN)C(=O)N[C@@H](CCC(N)=O)C(=O)N[C@@H](CCCNC(=N)N)C(=O)N[C@@H](CCC(=O)O)C(=O)N[C@@H](CCC(N)=O)C(=O)N[C@@H](C)C(=O)N[C@@H](CCC(=O)O)C(=O)N[C@H](C(=O)N[C@@H](CC(N)=O)C(=O)NC1(C(=O)N[C@@H](CCC(N)=O)C(=O)N[C@H](C(=O)N[C@@H](CC(C)C)C(=O)N[C@@H](C)C(=O)N[C@@H](CCC(N)=O)C(=O)N[C@H](C(N)=O)C(C)C)[C@@H](C)CC)CCCC1)[C@@H](C)O)[C@@H](C)CC)[C@@H](C)CC)C(C)C)C(C)C)", "note": "[SEQ ID NO 135]", "values": [
      {"measurement": "Emax (% I)", "setting": "[1]", "result": 15, "unit": "%"},
      {"measurement": "EC50 [nM] (cAMP)", "setting": "[2]", "result": 0.19, "unit": "nM"}
    ]},
    {"binder": "Ac-IVLSLD[dV]PIKLK([γGlu-C16 diacid])KILLEQEKQKKQREQAETN[Ac5c]QILAQV-NH2 (SMILES CC[C@H](C)[C@H](NC(C)=O)C(=O)N[C@H](C(=O)N[C@@H](CC(C)C)C(=O)N[C@@H](CO)C(=O)N[C@@H](CC(C)C)C(=O)N[C@@H](CC(=O)O)C(=O)N[C@@H](C(=O)N1CCC[C@H]1C(=O)N[C@H](C(=O)N[C@@H](CCCCN)C(=O)N[C@@H](CC(C)C)C(=O)N[C@@H](CCCCNC(=O)CC[C@H](NC(=O)CCCCCCCCCCCCCCC(=O)O)C(=O)O)C(=O)N[C@@H](CCCCN)C(=O)N[C@H](C(=O)N[C@@H](CC(C)C)C(=O)N[C@@H](CC(C)C)C(=O)N[C@@H](CCC(=O)O)C(=O)N[C@@H](CCC(N)=O)C(=O)N[C@@H](CCC(=O)O)C(=O)N[C@@H](CCCCN)C(=O)N[C@@H](CCC(N)=O)C(=O)N[C@@H](CCCCN)C(=O)N[C@@H](CCCCN)C(=O)N[C@@H](CCC(N)=O)C(=O)N[C@@H](CCCNC(=N)N)C(=O)N[C@@H](CCC(=O)O)C(=O)N[C@@H](CCC(N)=O)C(=O)N[C@@H](C)C(=O)N[C@@H](CCC(=O)O)C(=O)N[C@H](C(=O)N[C@@H](CC(N)=O)C(=O)NC1(C(=O)N[C@@H](CCC(N)=O)C(=O)N[C@H](C(=O)N[C@@H](CC(C)C)C(=O)N[C@@H](C)C(=O)N[C@@H](CCC(N)=O)C(=O)N[C@H](C(N)=O)C(C)C)[C@@H](C)CC)CCCC1)[C@@H](C)O)[C@@H](C)CC)[C@@H](C)CC)C(C)C)C(C)C)", "note": "[SEQ ID NO 60]", "values": [
      {"measurement": "Emax (% I)", "setting": "[1]", "result": 5, "unit": "%"},
      {"measurement": "EC50 [nM] (cAMP)", "setting": "[2]", "result": 0.34, "unit": "nM"}
    ]},
    {"binder": "[NMeI]VLSLD[dV]PIKLK([γGlu-C16 diacid])KILLEQEKQKAQREQAETN[Aib]QILAQV-NH2 (N-terminus assumed; SMILES CC[C@H](C)[C@H](NC)C(=O)N[C@H](C(=O)N[C@@H](CC(C)C)C(=O)N[C@@H](CO)C(=O)N[C@@H](CC(C)C)C(=O)N[C@@H](CC(=O)O)C(=O)N[C@@H](C(=O)N1CCC[C@H]1C(=O)N[C@H](C(=O)N[C@@H](CCCCN)C(=O)N[C@@H](CC(C)C)C(=O)N[C@@H](CCCCNC(=O)CC[C@H](NC(=O)CCCCCCCCCCCCCCC(=O)O)C(=O)O)C(=O)N[C@@H](CCCCN)C(=O)N[C@H](C(=O)N[C@@H](CC(C)C)C(=O)N[C@@H](CC(C)C)C(=O)N[C@@H](CCC(=O)O)C(=O)N[C@@H](CCC(N)=O)C(=O)N[C@@H](CCC(=O)O)C(=O)N[C@@H](CCCCN)C(=O)N[C@@H](CCC(N)=O)C(=O)N[C@@H](CCCCN)C(=O)N[C@@H](C)C(=O)N[C@@H](CCC(N)=O)C(=O)N[C@@H](CCCNC(=N)N)C(=O)N[C@@H](CCC(=O)O)C(=O)N[C@@H](CCC(N)=O)C(=O)N[C@@H](C)C(=O)N[C@@H](CCC(=O)O)C(=O)N[C@H](C(=O)N[C@@H](CC(N)=O)C(=O)NC(C)(C)C(=O)N[C@@H](CCC(N)=O)C(=O)N[C@H](C(=O)N[C@@H](CC(C)C)C(=O)N[C@@H](C)C(=O)N[C@@H](CCC(N)=O)C(=O)N[C@H](C(N)=O)C(C)C)[C@@H](C)CC)[C@@H](C)O)[C@@H](C)CC)[C@@H](C)CC)C(C)C)C(C)C)", "note": "[SEQ ID NO 74]", "values": [
      {"measurement": "Emax (% I)", "setting": "[1]", "result": 7, "unit": "%"},
      {"measurement": "EC50 [nM] (cAMP)", "setting": "[2]", "result": 0.15, "unit": "nM"}
    ]},
    {"binder": "Ac-IVLSLD[dV]PIKLK([γGlu-C18 diacid])KILLEQEKQKKQREQAETN[Ac3c]QILAQV-NH2 (SMILES CC[C@H](C)[C@H](NC(C)=O)C(=O)N[C@H](C(=O)N[C@@H](CC(C)C)C(=O)N[C@@H](CO)C(=O)N[C@@H](CC(C)C)C(=O)N[C@@H](CC(=O)O)C(=O)N[C@@H](C(=O)N1CCC[C@H]1C(=O)N[C@H](C(=O)N[C@@H](CCCCN)C(=O)N[C@@H](CC(C)C)C(=O)N[C@@H](CCCCNC(=O)CC[C@H](NC(=O)CCCCCCCCCCCCCCCCC(=O)O)C(=O)O)C(=O)N[C@@H](CCCCN)C(=O)N[C@H](C(=O)N[C@@H](CC(C)C)C(=O)N[C@@H](CC(C)C)C(=O)N[C@@H](CCC(=O)O)C(=O)N[C@@H](CCC(N)=O)C(=O)N[C@@H](CCC(=O)O)C(=O)N[C@@H](CCCCN)C(=O)N[C@@H](CCC(N)=O)C(=O)N[C@@H](CCCCN)C(=O)N[C@@H](CCCCN)C(=O)N[C@@H](CCC(N)=O)C(=O)N[C@@H](CCCNC(=N)N)C(=O)N[C@@H](CCC(=O)O)C(=O)N[C@@H](CCC(N)=O)C(=O)N[C@@H](C)C(=O)N[C@@H](CCC(=O)O)C(=O)N[C@H](C(=O)N[C@@H](CC(N)=O)C(=O)NC1(C(=O)N[C@@H](CCC(N)=O)C(=O)N[C@H](C(=O)N[C@@H](CC(C)C)C(=O)N[C@@H](C)C(=O)N[C@@H](CCC(N)=O)C(=O)N[C@H](C(N)=O)C(C)C)[C@@H](C)CC)CC1)[C@@H](C)O)[C@@H](C)CC)[C@@H](C)CC)C(C)C)C(C)C)", "note": "[SEQ ID NO 136]", "values": [
      {"measurement": "Emax (% I)", "setting": "[1]", "result": 5, "unit": "%"},
      {"measurement": "EC50 [nM] (cAMP)", "setting": "[2]", "result": 0.16, "unit": "nM"}
    ]}
  ]
}
